Reference: patent publication US8329653 (BUCK INSTITUTE FOR AGE RESEARCH, dated 2012)

B1: endogenous mouse p75^ntr (E16.5 embryonic cortex) (receptor, UniProt Q9Z0W1 32-427, looked up)
chain: KETCSTGMYTHSGECCKACNLGEGVAQPCGANQTVCEPCLDSVTFSDVVSATEPCKPCTECLGLQSMSAPCVEADDAVCRCSYGYYQDEETGRCEACSVCGVGSGLVFSCQDKQNTVCEECPEGTYSDEANHVDPCLPCTVCEDTERQLRECTPWADAECEEIPGRWITRSTPPEGSDVTTPSTQEPEAPPERDLIASTVADTVTTVMGSSQPVVTRGTADNLIPVYCSILAAVVVGLVAYIAFKRWNSCKQNKQGANSRPVNQTPPPEGEKLHSDSGISVDSQSLHDQQTHTQTASGQALKGDGNLYSSLPLTKREEVEKLLNGDTWRHLAGELGYQPEHIDSFTHEACPVRALLASWGAQDSATLDALLAALRRIQRADIVESLCSESTATSPV
notes: whole, on cells; also called P75-NGFR
B2: endogenous mouse TrkC (E16.5 embryonic cortex) (receptor)
chain: not shown
notes: whole, on cells
B3: endogenous mouse bFGF (E16.5 embryonic cortex) (ligand, UniProt P15655 10-154, looked up)
chain: PALPEDGGAAFPPGHFKDPKRLYCKNGGFFLRIHPDGRVDGVREKSDPHVKLQLQAEERGVVSIKGVCANRYLAMKEDGRLLASKCVTEECFFFERLESNNYNTYRSRKYSSWYVALKRTGQYKLGSKTGPGQKAILFLPMSAKS

Legend:
[1] = target: T1, Human Net 1-FlagM2 (Apotech), recombinant netrin-1 (human, UniProt O95631 25-604); experiment: ELISA, Aβ1-17 coated at 0.07 µg/ml, various netrin-1 concentrations
T1 construct: also called recombinant netrin-1 (Apotech Corp.); not shown: FlagM2 tag
Description: An anti-mouse antibody coupled to HRP (Jackson ImmunoResearch, Inc) was added at a concentration of 0.8 μg/ml for 1 hour at 37° C. Colorimetric intensity was measured at a wavelength of 490 nm using a Victor station (Wallac).

[2] = target: T2, endogenous mouse netrin-1 (E16.5 embryonic cortex) (mouse, UniProt O09118 25-604); experiment: co-immunoprecipitation of endogenous proteins from E16.5 mouse cortex
T2 construct: also called mNet1

[3] = target: T3, endogenous mouse APP (embryonic cortex) (mouse, UniProt P12023 18-770); experiment: as above
T3 construct: whole, on cells; also called endogenous APP

Row | binding result [2] | other results | Binder
1 | – | Kd [1]: 30 nM | DAEFRHDSGYEVHHQKL (peptide, UniProt P05067 672-688, looked up, domain: Aβ1-17) [Aβ1-17 (the 17 first amino acids of Aβ)]
2 | no binding | – | B1
3 | no binding | – | B2
4 | – | binding result [3]: no binding | B3
